Values of other authors, collected in EP1600162A1, “Shelf-stable formulation of glucagon-like peptide-1” (Eli Lilly & Company, priority 1998, dated 2005).

Conditions: stored at 4° C

GLP-1(7-37): GLP-1 molecule affected by dipeptidyl-peptidase IV; background peptide
time after sample preparation at which by-products have been found: eleven
